The values below are quoted from earlier work in paper PMC2652250.

This data set has as its target cardiac troponin I 147-163 (Homo sapiens) (UniProt P19429). The experiment in a line: NMR.

Consider “cardiac troponin C (cNTnC) N-terminal domain (from UniProt P63316)”, for which the Kd was 154 µM.
